“Also recorded” adds a separate entry of the source.
Legend:
E. coli PNPase = biological target: T1, E. coli PNPase (E. coli, UniProt P05055 1-711); experiment: SEC-MALS; Superdex 200 10/300 Increase, 100 µl at ~1 mg/ml, 25°C; buffer A (50 mM Tris pH 7.5, 100 mM NaCl, 100 mM KCl, 0.01% w/v b-DDM, 1 mM TCEP) or B (A without b-DDM) as Table S2 tells for each sample; the 1:1 ratio is one RNase E segment to one PNPase trimer (expected mass = trimer plus one segment); conditions: both partners purified
T1 construct: polynucleotide phosphorylase (PNPase), E. coli; also called polynucleotide phosphorylase; full-length PNPase; source: E. coli BL21(DE3), purified (ammonium sulfate, Q, butyl-Sepharose, SEC)
T1 sequence (looked up): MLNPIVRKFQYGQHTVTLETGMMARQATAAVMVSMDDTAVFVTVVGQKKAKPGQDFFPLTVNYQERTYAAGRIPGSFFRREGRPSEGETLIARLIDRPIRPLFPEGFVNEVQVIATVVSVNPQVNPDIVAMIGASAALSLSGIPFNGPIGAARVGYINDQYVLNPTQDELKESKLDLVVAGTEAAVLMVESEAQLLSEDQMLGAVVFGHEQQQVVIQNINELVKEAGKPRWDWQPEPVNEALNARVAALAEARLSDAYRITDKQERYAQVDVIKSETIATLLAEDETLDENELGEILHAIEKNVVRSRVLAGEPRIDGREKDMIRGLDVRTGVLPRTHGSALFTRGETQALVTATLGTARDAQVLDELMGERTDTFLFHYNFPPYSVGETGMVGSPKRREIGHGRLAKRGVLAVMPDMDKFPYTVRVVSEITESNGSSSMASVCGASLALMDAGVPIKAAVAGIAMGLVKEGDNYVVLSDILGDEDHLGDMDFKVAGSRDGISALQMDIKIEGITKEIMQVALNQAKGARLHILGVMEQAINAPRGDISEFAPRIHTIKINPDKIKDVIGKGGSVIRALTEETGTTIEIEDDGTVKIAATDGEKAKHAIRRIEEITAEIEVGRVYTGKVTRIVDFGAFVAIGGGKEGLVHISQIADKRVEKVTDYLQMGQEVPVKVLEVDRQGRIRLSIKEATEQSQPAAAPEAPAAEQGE

PNPase = biological target: T2, PNPase (Escherichia coli, UniProt P05055); assay type: binding, E. coli
T2 construct: made in house; host or cells: E. coli Evo21(DE3)
T2 sequence (P05055 whole entry, looked up): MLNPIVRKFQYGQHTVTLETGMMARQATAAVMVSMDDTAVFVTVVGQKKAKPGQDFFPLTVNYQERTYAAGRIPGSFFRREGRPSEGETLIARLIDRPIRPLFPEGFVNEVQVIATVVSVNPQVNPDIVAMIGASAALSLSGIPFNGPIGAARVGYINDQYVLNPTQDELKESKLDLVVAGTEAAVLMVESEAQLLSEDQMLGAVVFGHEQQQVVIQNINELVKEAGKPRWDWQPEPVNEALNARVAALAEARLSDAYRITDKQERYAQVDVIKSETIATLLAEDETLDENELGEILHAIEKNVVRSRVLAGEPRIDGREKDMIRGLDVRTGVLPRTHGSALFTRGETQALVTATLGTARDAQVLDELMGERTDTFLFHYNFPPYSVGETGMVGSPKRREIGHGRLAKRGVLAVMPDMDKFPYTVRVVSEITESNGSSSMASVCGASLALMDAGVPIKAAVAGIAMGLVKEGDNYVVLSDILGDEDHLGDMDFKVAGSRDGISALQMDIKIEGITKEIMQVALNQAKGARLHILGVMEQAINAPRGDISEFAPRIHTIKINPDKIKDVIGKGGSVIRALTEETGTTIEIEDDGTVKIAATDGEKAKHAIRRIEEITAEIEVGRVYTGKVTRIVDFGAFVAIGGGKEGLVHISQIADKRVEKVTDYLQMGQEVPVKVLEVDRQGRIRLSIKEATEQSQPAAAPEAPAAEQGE
Source text: Briefly, at the N-terminal of the construct, there is an Hisx6 affinity tag that will be used for affinity purification. Following the Hisx6 tag there is an maltose-binding protein (MBP) tag with a TEV cleavage site to maintain solubility of the peptides. Following the MBP tag the gene encoding the peptide is inserted, and is then followed by intein, a self-cleavable tag, followed by a choline-binding domain, which can be used for an extra step of affinity purification. […] After expression, cells were harvested, resuspended in Lysis Buffer 2 (20 mM Tris–HCl, pH 8.0, 80 mM KCl, 300 mM NaCl, 20 mM Imidazole, 0.5 mM TCEP), and lysed with a cell disruptor (Emulsiflex, Avestin). […] After subsequent rounds of washing with Ni Equilibration Buffer supplemented with, respectively, 0.1% Triton-X, 1 M NaCl, and a final wash in Ni Equilibration Buffer, samples were eluted with Ni Elution Buffer (20 mM Tris–HCl, pH 8.0, 300 mM NaCl, 300 mM imidazole, 0.5 mM TCEP). Enriched fractions were then supplemented with 100 mM β-mercaptoethanol to catalyse intein self-cleavage overnight at room temperature. Treated samples were filtered and loaded on an amylose gravity flow column, equilibrated with Amy Equilibration Buffer (20 mM Tris–HCl, pH 8.0, 20 mM NaCl, 20 mM imidazole, 2 mM β-mercaptoethanol) and after washing, His-tagged TEV protease was applied to the resin and incubated at 4°C for 2 h.
PNPase carrying a C-terminal Hisx6 tag was expressed from pExp-cis-Ec_PNP-CHis vector in E. coli Evo21(DE3) cells, induced with 0.4 mM IPTG, at 18°C overnight. After expression, cells were harvested and resuspended in Lysis Buffer 2 (20 mM Tris–HCl, pH 8.0, 80 mM KCl, 300 mM NaCl, 20 mM imidazole, 0.5 mM TCEP), and lysed with a cell disruptor (Emulsiflex, Avestin). […] After subsequent rounds of washing with equilibration buffer supplemented with 0.1% Triton-X, or 1 M NaCl, the sample was eluted with Ni PNPCHis Elution Buffer (20 mM NaH2PO4, pH 8.0, 300 mM NaCl, 300 mM KCl, 5 mM MgCl2, 300 mM imidazole, pH 7.5, 10 mM β-mercaptoethanol). […] Fractions containing PNPase were run through a HiPrep™ 26/10 Desalting Column (GE Healthcare) and buffer exchanged to Q PNPCHis A (20 mM NaH2PO4, pH 8.0, 30 mM NaCl, 10% glycerol, 0.5 mM TCEP).
Interaction measurements were made using a Biacore T200 instrument (GE) at 25°C. PNPase with a 6xHisTag at the CTD was immobilized on a Series S Sensor Chip NTA (Cytiva) to provide a signal of 5 response units (RU). […] For the SPR analysis of the point mutants, binding to PNPase was measured at four different concentrations (0, 12.5, 25, and 50 nM). All concentrations were run in duplicates. The contact time was 60 s, while the dissociation time was 120 s, at a […] flow rate. […] The chip surface was regenerated with 350 mM EDTA in water, following manufacturer's instructions. Data were processed using the manufacturer’s BIAevaluation software.

[1] = SPR, mutant vs wildtype RNase E 960–1061

B1: RNase E 960-1061 (in the SEC-MALLS sample with PNPase) (domain or fragment, E. coli, UniProt P21513 960-1061, looked up)
chain: VVETAEVVVAEPEVVAQPAAPVVAEVAAEVETVAAVEPEVTVEHNHATAPMTRAPAPEYVPEAPRHSDWQRPTFAFEGKGAAGGHTATHHASAAPARPQPVE
notes: The expected mass of the complex fits one untagged segment of 10,585 Da on a PNPase trimer
stoichiometry N (E. coli PNPase): 1

B2: RNase E 960 – 1061 R1012AR10546A: RNase E peptide with mutation of both Arg1012 and Arg1056 to alanine (peptide)
chain: VVETAEVVVAEPEVVAQPAAPVVAEVAAEVETVAAVEPEVTVEHNHATAPMTAAPAPEYVPEAPRHSDWQRPTFAFEGKGAAGGHTATHHASAAPAAPQPVE
modifications: left off: His6, N-terminal, cleaved | MBP, N-terminal, cleaved | intein, C-terminal, cleaved | choline-binding domain, C-terminal, cleaved
notes: RNase E peptide with mutation of both Arg1012 and Arg1056 to alanine
Kd (dissociation rate constant, point mutants and wildtype) (PNPase; SPR, 25°C, immobilized PNPase C-His, HEPES pH 7.2, 0, 12.5, 25 and 50 nM (point mutants), contact 120 s, dissociation 120 s, duplicates): 0.12 s⁻¹
KD range in words (double mutant) (PNPase; SPR, 25°C, immobilized PNPase C-His, contact 120 s): low micromolar range
association rate compared to R1056A, in words (PNPase; SPR, double mutant vs slowest-binding single mutant (R1056A)): ten-fold slower
association rate compared to the wildtype, in words (PNPase; [1]): about two orders of magnitude slower
dissociation rate (off-rate) compared to the wildtype, in words (PNPase; [1]): faster off-rate
effect on KD / binding compared to the wildtype, in words (PNPase; SPR, mutant vs wildtype RNase E 960–1061, listed as R1012AR1056A): significant decrease in binding; also recorded: significantly affected the binding to PNPase

B3: RNase E 985-1053: RNase E peptide lacking the terminal Pro-rich motif (peptide)
chain: VAAEVETVAAVEPEVTVEHNHATAPMTRAPAPEYVPEAPRHSDWQRPTFAFEGKGAAGGHTATHHASAA
modifications: left off: His6, N-terminal, cleaved | MBP, N-terminal, cleaved | intein, C-terminal, cleaved | choline-binding domain, C-terminal, cleaved
notes: RNase E peptide lacking the terminal Pro-rich motif
binding compared with the peptide including the region with Arg1056, in words (PNPase): significantly weaker binding
KD range in words (PNPase; pH 7.2): high micromolar
k a (PNPase; pH 7.2): 2.94E + 4 1/M s
k d (PNPase; pH 7.2): 0.339 s⁻¹

B4: RNase E 583-1061, avi-tagged (domain or fragment, E. coli, UniProt P21513 583-1061, looked up)
chain: SGGEETKPTEQPAPKAEAKPERQQDRRKPRQNNRRDRNERRDTRSERTEGSDNREENRRNRRQAQQQTAETRESRQQAEVTEKARTADEQQAPRRERSRRRNDDKRQAQQEAKALNVEEQSVQETEQEERVRPVQPRRKQRQLNQKVRYEQSVAEEAVVAPVVEETVAAEPIVQEAPAPRTELVKVPLPVVAQTAPEQQEENNADNRDNGGMPRRSRRSPRHLRVSGQRRRRYRDERYPTQSPMPLTVACASPELASGKVWIRYPIVRPQDVQVEEQREQEEVHVQPMVTEVPVAAAIEPVVSAPVVEEVAGVVEAPVQVAEPQPEVVETTHPEVIAAAVTEQPQVITESDVAVAQEVAEQAEPVVEPQEETADIEEVVETAEVVVAEPEVVAQPAAPVVAEVAAEVETVAAVEPEVTVEHNHATAPMTRAPAPEYVPEAPRHSDWQRPTFAFEGKGAAGGHTATHHASAAPARPQPVE
notes: The construct is described nowhere in the methods
stoichiometry N (E. coli PNPase): 1
